Measurements reported in PMC4878094.

Legend:
Assay in all cases: single-filament TIRF microscopy of microtubule growth
[1] = target: recombinant α/βIIB tubulin heterodimer (human) (UniProt P68363)
[2] = target: recombinant α/βIIB-tail-III tubulin heterodimer (human) (UniProt P68363)
[3] = target: recombinant α/βIII-tail-IIB tubulin heterodimer (human) (UniProt P68363)

Work on “recombinant α/βIIB tubulin heterodimer (from UniProt P68363-1 1-451; Q9BVA1 1-445) (complex)” yielded a koff [1] of 2.6 s⁻¹ and a kon [1] of 1.9e+06 M⁻¹ s⁻¹.
With “recombinant α/βIIB-tail-III tubulin heterodimer (from UniProt P68363-1 1-451; Q9BVA1 1-427; Q13509 428-450) (complex)” the koff [2] was 5.5 s⁻¹ and the kon [2] was 2e+06 M⁻¹ s⁻¹.
“recombinant α/βIII-tail-IIB tubulin heterodimer (from UniProt P68363-1 1-451; Q13509 1-427; Q9BVA1 428-445) (complex)” gave a koff [3] of 2.4 s⁻¹ and a kon [3] of 1.8e+06 M⁻¹ s⁻¹.
